Measurements reported in US12077763B2, “RNA-based control of powdery mildew” (Greenlight Biosciences, Inc., priority 2021, dated 2024).

Tested on: E. necator
Assay: Leaf disc assay, dry inoculum (settling tower), decrease in disease severity / hyphal growth (Example 2)
Settings: decrease in disease severity (hyphal growth) relative to untreated control, value ± SE; for % decrease =/− SE TP1: time point 1 (untreated control hyphal growth ≥50%); for % decrease =/− SE TP2: time point 2

Molecule	% decrease =/− SE TP1	% decrease =/− SE TP2
GS3523 (nucleic acid) sense: UAACGAGAGAGAAUACACGGUAAAGACAGUAGUAUGGCAUAUGAUGCAAAAUGUAGAAAAGAUUGUAAUUGAGUUGGCAGUAAGUUCAUUCACGAAAAAUGAAUUAUUUUCCACACCAUAUCCGGGCUGAGGAAGGAAGACAUUUGUUUUCAAGUCAAGUUAAUGAAAAAACCAAAAAUAAAACUCAAACACACAGUGAGUAAUUUUUAUUAAGGUGGUCCAAUAAUAAUUUUUUCUGACAUGUACUCCUUGUAGUUUUGAGAUGAAAAUAGAGAUAAUAUUGAGUCUGUCGUUAUCCGAAACAGUUUAUGUUAGAGGUUGAUAAAUGACGAUACAAAAUGUAUAUAUUAGGAAAUCAAUUUACCGUGACCAAUGAGAAAAGAGGAGGUCUAAUU antisense: AAUUAGACCUCCUCUUUUCUCAUUGGUCACGGUAAAUUGAUUUCCUAAUAUAUACAUUUUGUAUCGUCAUUUAUCAACCUCUAACAUAAACUGUUUCGGAUAACGACAGACUCAAUAUUAUCUCUAUUUUCAUCUCAAAACUACAAGGAGUACAUGUCAGAAAAAAUUAUUAUUGGACCACCUUAAUAAAAAUUACUCACUGUGUGUUUGAGUUUUAUUUUUGGUUUUUUCAUUAACUUGACUUGAAAACAAAUGUCUUCCUUCCUCAGCCCGGAUAUGGUGUGGAAAAUAAUUCAUUUUUCGUGAAUGAACUUACUGCCAACUCAAUUACAAUCUUUUCUACAUUUUGCAUCAUAUGCCAUACUACUGUCUUUACCGUGUAUUCUCUCUCGUUA	8 ± 11%	12 ± 10%
GS3601 (nucleic acid) sense: CAAUUGCUGCAGCAUGACCUUCUCUUGGAACCGGUAUAUAUCCUAUGCAGUCCAAAAGAGUCCAGGAGUUCGGUAUCGGAUCAUAACACCAAACAUCGUUAUACCAUUGAAGACCAUUUGUUCCGCCAAACAAGUAAAGCUUUUCAUUAUAUGUCACAACUGAGUGAUUUGUUCUAGCUGAUGGUAUUUGUCCUACUGGGGGUCCACCAUCCUCACUAUUUUUAAUGAGAAUUUCCCACCUGUUCGUAGGGACUUGCAAAAGAUUCAAAUCAAAAGCCACAAGGUCAUUCAUAAAAUAACCCUCUACUUGCCCCCCGAAUACGUAGAUUUUAGACCCUAGUAUAUUGAGAGAAUGACCAUAACGCCCCGCGGGCCGUGGCCCGGCAGGUAUAGCUCUGGA antisense: UCCAGAGCUAUACCUGCCGGGCCACGGCCCGCGGGGCGUUAUGGUCAUUCUCUCAAUAUACUAGGGUCUAAAAUCUACGUAUUCGGGGGGCAAGUAGAGGGUUAUUUUAUGAAUGACCUUGUGGCUUUUGAUUUGAAUCUUUUGCAAGUCCCUACGAACAGGUGGGAAAUUCUCAUUAAAAAUAGUGAGGAUGGUGGACCCCCAGUAGGACAAAUACCAUCAGCUAGAACAAAUCACUCAGUUGUGACAUAUAAUGAAAAGCUUUACUUGUUUGGCGGAACAAAUGGUCUUCAAUGGUAUAACGAUGUUUGGUGUUAUGAUCCGAUACCGAACUCCUGGACUCUUUUGGACUGCAUAGGAUAUAUACCGGUUCCAAGAGAAGGUCAUGCUGCAGCAAUUG	–	2 ± 3%
GS3524 (nucleic acid) sense: UCAAGUCCACUUCGAUUUGUAAAGCAAGAAGUUAUGAGACCUUGAGAAUGACUGAGGUAGGCCGAAUAAGAUUUUCAGAUUCUAAAAUACUGGAUUUUGGUACCAAUUCAUGAUCCUUUCUGGCCCCCUUACAUUGGCGACAAGGCAGAUAGUCAUCGAGUUGGUCUUUUCCAGUCAAAGAAUGAUAAUCUCCAACGUCUUUCCGGGAAACAGAAGUUGUAUUGACAUUAAUUACAGCUGUGGAUGAGGAUGAACGAUAAUAUUGGCGUUGAGCUACAGGGAAGGGAUUCAACAGAUGCCAUUGCCAUUCAUAAUUUCCAUGAAGCCAAGUCGUUGAAGCCAGAGAUGCAAGUGUAUGGAAGAAUCCCAAGAGCCAAUUGAUUGAAGACAGAAUUACU antisense: AGUAAUUCUGUCUUCAAUCAAUUGGCUCUUGGGAUUCUUCCAUACACUUGCAUCUCUGGCUUCAACGACUUGGCUUCAUGGAAAUUAUGAAUGGCAAUGGCAUCUGUUGAAUCCCUUCCCUGUAGCUCAACGCCAAUAUUAUCGUUCAUCCUCAUCCACAGCUGUAAUUAAUGUCAAUACAACUUCUGUUUCCCGGAAAGACGUUGGAGAUUAUCAUUCUUUGACUGGAAAAGACCAACUCGAUGACUAUCUGCCUUGUCGCCAAUGUAAGGGGGCCAGAAAGGAUCAUGAAUUGGUACCAAAAUCCAGUAUUUUAGAAUCUGAAAAUCUUAUUCGGCCUACCUCAGUCAUUCUCAAGGUCUCAUAACUUCUUGCUUUACAAAUCGAAGUGGACUUGA	3 ± 11%	22 ± 12%
GS3526 (nucleic acid) sense: UAUCCCUGAUUUCUAUAGUCUGAUGAAGAAUGAUUUUUGUAGGCAAUAGACUUUCUUCUCUUCCCAGAACAGCAGCUUCUACAGCAUCCACAACAGCUUAGGAAAGAGAAGCAAGAACAACAAAAUGAGUAUCCAAAGCACAAGCAGCGUGUCAUACAAAUGAUAAUUGAGAGGACUAUUAAGCCACCGAUAACAAGUCCGAUUAUUGCUGGCCAUUUGCAAUAAAUUUGUAUCAUGCAUUUAUCCCAGUUGGUGAAUGAAGAAGUAACGUUUGAUACUUGAUUAGUUAAUUGAUCACUCAACUGAUCACUUACAAGCCUUGGCCUAAGCAAACUAAUCUCCAAAAAAUUCAUGUUUCCAAUAUUAACACCUCCGUGAUCUUCAUUAAAUAAGUAA antisense: UUACUUAUUUAAUGAAGAUCACGGAGGUGUUAAUAUUGGAAACAUGAAUUUUUUGGAGAUUAGUUUGCUUAGGCCAAGGCUUGUAAGUGAUCAGUUGAGUGAUCAAUUAACUAAUCAAGUAUCAAACGUUACUUCUUCAUUCACCAACUGGGAUAAAUGCAUGAUACAAAUUUAUUGCAAAUGGCCAGCAAUAAUCGGACUUGUUAUCGGUGGCUUAAUAGUCCUCUCAAUUAUCAUUUGUAUGACACGCUGCUUGUGCUUUGGAUACUCAUUUUGUUGUUCUUGCUUCUCUUUCCUAAGCUGUUGUGGAUGCUGUAGAAGCUGCUGUUCUGGGAAGAGAAGAAAGUCUAUUGCCUACAAAAAUCAUUCUUCAUCAGACUAUAGAAAUCAGGGAUA	22 ± 10%	11 ± 10%
GS3478 (nucleic acid) sense: ACCGUCCUGAAAGUAAAGGUGAAAAGAAAGAGCGUCUUCUCAAGGAAGCUACAGCUAUUAAAAAUGGCAACAAGGAGGAUGUCAGUAAGAAGCCAUACACAGUAAAGUAUGGACUCAAUCAUGUCGUUGGUUUGGUUGAGAAUAAGAAAGCUUCUCUAGUCUUAAUACCCAAUGAUGUCGAUCCUAUAGAGUUGGUUAUAUUUCUUCCAGCUCUUUGUCGAAAGAUGGGAGUUCCUUAUGCUAUCAUUAAAGGAAAAGCUAGACUUGGUACUGUUGUACACAAGAAAACUGCUGCUGUAUUGGCAAUAACUGAAGUUCGAUCCGAAGAUAAAUCAGAGCUAUCAAAAUUAAUCCAAGCUAUUAAAGAAGGCUACUCUGAGAAAUAUGAAGAAGCUAAG antisense: CUUAGCUUCUUCAUAUUUCUCAGAGUAGCCUUCUUUAAUAGCUUGGAUUAAUUUUGAUAGCUCUGAUUUAUCUUCGGAUCGAACUUCAGUUAUUGCCAAUACAGCAGCAGUUUUCUUGUGUACAACAGUACCAAGUCUAGCUUUUCCUUUAAUGAUAGCAUAAGGAACUCCCAUCUUUCGACAAAGAGCUGGAAGAAAUAUAACCAACUCUAUAGGAUCGACAUCAUUGGGUAUUAAGACUAGAGAAGCUUUCUUAUUCUCAACCAAACCAACGACAUGAUUGAGUCCAUACUUUACUGUGUAUGGCUUCUUACUGACAUCCUCCUUGUUGCCAUUUUUAAUAGCUGUAGCUUCCUUGAGAAGACGCUCUUUCUUUUCACCUUUACUUUCAGGACGGU	29 ± 4%	13 ± 9%
GS3525 (nucleic acid) sense: CUGGAAUUGUUGCACUGGCCAUGUAAAGCAGUUUAUGACUCGUCUAAAUAUUUAAUUACGGCUAUGCACGGAGAGCUUGGGGUUACUGUUUUUUUUUCUCAAAAAUAUGCCGGUGGGAUUCGAAUUGGUCCGGAUAUUUUUUCUGUAAAUAAUUGAGUGACGGCUUUGUACUCGUGAUAAUUACAGACAAAUCUAAUAUAAUGUGCUUAUCCUUCUAACGAACUUCGGAGAAUGAUUUGUUUUAUUGAGUGAUUAGUUGACUUGUUUUAUUAGUUAUGGUUAUCAAACGAUCACAUAAAAAAACGCAUACUUUUUACAAUGAAGUGAUUGUAUACCAAUGUUUCCCUUGGUGGCCCUCAAAAAACUAAGUUAGAUAGAU antisense: AUCUAUCUAACUUAGUUUUUUGAGGGCCACCAAGGGAAACAUUGGUAUACAAUCACUUCAUUGUAAAAAGUAUGCGUUUUUUUAUGUGAUCGUUUGAUAACCAUAACUAAUAAAACAAGUCAACUAAUCACUCAAUAAAACAAAUCAUUCUCCGAAGUUCGUUAGAAGGAUAAGCACAUUAUAUUAGAUUUGUCUGUAAUUAUCACGAGUACAAAGCCGUCACUCAAUUAUUUACAGAAAAAAUAUCCGGACCAAUUCGAAUCCCACCGGCAUAUUUUUGAGAAAAAAAAACAGUAACCCCAAGCUCUCCGUGCAUAGCCGUAAUUAAAUAUUUAGACGAGUCAUAAACUGCUUUACAUGGCCAGUGCAACAAUUCCAG	17 ± 9%	34 ± 8%
GS3602 (nucleic acid) sense: CUUGGAACCGGUAUAUAUCCUAUGCAGUCCAAAAGAGUCCAGGAGUUCGGUAUCGGAUCAUAACACCAAACAUCGUUAUACCAUUGAAGACCAUUUGUUCCGCCAAACAAGUAAAGCUUUUCAUUAUAUGUCACAACUGAGUGAUUUGUUCUAGCUGAUGGUAUUUGUCCUACUGGGGGUCCACCAUCCUCACUAUUUUUAAUGAGAAUUUCCCACCUGUUCGUAGGGACUUGCAAAAGAUUCAAAUCAAAAGCCACAAGGUCAUUCAUAAAAUAACCCUCUACUUGCCCCCCGAAUACGUAGAUUUUAGACCCUAGUAUAUUGAGAGAAUGACCAUAACGCCCCGCGGG antisense: CCCGCGGGGCGUUAUGGUCAUUCUCUCAAUAUACUAGGGUCUAAAAUCUACGUAUUCGGGGGGCAAGUAGAGGGUUAUUUUAUGAAUGACCUUGUGGCUUUUGAUUUGAAUCUUUUGCAAGUCCCUACGAACAGGUGGGAAAUUCUCAUUAAAAAUAGUGAGGAUGGUGGACCCCCAGUAGGACAAAUACCAUCAGCUAGAACAAAUCACUCAGUUGUGACAUAUAAUGAAAAGCUUUACUUGUUUGGCGGAACAAAUGGUCUUCAAUGGUAUAACGAUGUUUGGUGUUAUGAUCCGAUACCGAACUCCUGGACUCUUUUGGACUGCAUAGGAUAUAUACCGGUUCCAAG	5 ± 6%	7 ± 8%
